Measured values reported in patent US20250320252A1 (Scripps Research, published 2025).
Read-outs that look alike come from different tables or passages of the source. Bridge positions count the residues as written; N and C are the ends. Square brackets hold non-standard residues; d marks the D form. Ends that are not written are not given here. C20L5A = not defined here; Nle = CCCC[C@H](N)C(=O)O; L5A = not defined here; K4 = not defined here; K5 = not defined here; Aib = CC(C)(N)C(=O)O

Columns and labels:
Experiment in all cases: cell-based or functional assay
human GIP receptor [1] = biological target: T1, human GIP receptor (human, UniProt P48546 22-466)
T1 sequence (looked up): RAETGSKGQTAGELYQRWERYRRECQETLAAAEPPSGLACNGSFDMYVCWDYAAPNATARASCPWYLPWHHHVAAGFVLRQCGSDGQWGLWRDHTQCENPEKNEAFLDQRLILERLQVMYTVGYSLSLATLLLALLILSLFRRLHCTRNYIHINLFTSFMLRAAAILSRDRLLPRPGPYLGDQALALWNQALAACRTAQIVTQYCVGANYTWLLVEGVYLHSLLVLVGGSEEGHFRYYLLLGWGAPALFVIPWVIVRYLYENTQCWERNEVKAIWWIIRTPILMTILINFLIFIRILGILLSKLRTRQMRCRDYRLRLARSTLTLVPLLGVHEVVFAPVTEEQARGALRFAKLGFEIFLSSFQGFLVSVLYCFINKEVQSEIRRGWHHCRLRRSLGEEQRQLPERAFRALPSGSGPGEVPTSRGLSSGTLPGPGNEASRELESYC

human GLP-1 receptor [2] = biological target: T2, human GLP-1 receptor (human, UniProt P43220 24-463)
human GIP receptor [3] = biological target: T1, human GIP receptor; remark: listed apart in the source
human GLP-1 receptor [4] = biological target: T2, human GLP-1 receptor; remark: listed apart in the source
human GIP receptor [5] = biological target: T1, human GIP receptor; remark: listed apart in the source
human GLP-1 receptor [6] = biological target: T2, human GLP-1 receptor; remark: listed apart in the source
human GIP receptor [7] = biological target: T1, human GIP receptor; remark: listed apart in the source

B1: 6Y, 27I, C(17-24)-C20L5A (peptide)
peptide: Y[Aib]EGTYTSDYSIYLDKCAA[Aib]EFVCWLIAGGPSSGAPPPS-NH2
modifications: linker 17-24 via C20L5A; not fully specified; reading uncertain
B1 was tested, and the “EC50 of receptor-mediated cAMP synthesis, GIPR (nM), 02/19” value (“EC50 … GIPR (nM), 02/19” for short) (human GIP receptor [1]) was 0.27 nM, the “EC50 of receptor-mediated cAMP synthesis, GIPR (nM), 03/25” value (from here on “EC50 … 03/25”) (human GIP receptor [1]) was 0.27 nM and the “EC50 of receptor-mediated cAMP synthesis, GIPR (nM), 03/26” value (from here on “EC50 … GIPR (nM), 03/26”) (human GIP receptor [1]) was 0.25 nM. The “EC50 of receptor-mediated cAMP synthesis, GIPR (nM), average” value (from here on “EC50 … GIPR (nM), average”) (human GIP receptor [1]) was 0.26 nM, the “EC50 of receptor-mediated cAMP synthesis, GLP1R (nM), 02/19” value (“EC50 … GLP1R (nM), 02/19” below) (human GLP-1 receptor [2]) was 0.05 nM and the “EC50 of receptor-mediated cAMP synthesis, GLP1R (nM), 3/25” value (from here on “EC50 … (nM), 3/25”) (human GLP-1 receptor [2]) was 0.07 nM. The “EC50 of receptor-mediated cAMP synthesis, GLP1R (nM), 03/26” value (from here on “EC50 … GLP1R (nM), 03/26”) (human GLP-1 receptor [2]) was 0.06 nM and the “EC50 of receptor-mediated cAMP synthesis, GLP1R (nM), average” value (shortened to “EC50 … GLP1R (nM), average”) (human GLP-1 receptor [2]) was 0.06 nM.

B2: ZA-41 - K5 (peptide)
peptide: H-Y[Aib]EGTFHSDYDIYKDKQAA[Aib]KFVQWLLAGGPSSGAPPPS-NH2
modifications: bridge 14-21 via K5; reading uncertain
B2 was tested, and the “EC50 [nM] of receptor-mediated cAMP synthesis” value (from here on “EC50 [nM]”) (human GIP receptor [3]) was 12.6 nM and the “EC50 [nM]” value (human GLP-1 receptor [4]) was 83.9 nM.

B3: 7I, 10V, 27I, C(14-21) - C20L5A (peptide)
peptide: Y[Aib]EGTFISDVSIYCDKQAA[Aib]CFVNWLIAGGPSSGAPPPS-NH2
modifications: linker 14-21 via C20L5A; not fully specified; reading uncertain
With B3 the “EC50 [nM]” value (human GIP receptor [5]) was 303 nM and the “EC50 [nM]” value (human GLP-1 receptor [6]) was ~13700 nM.

B4: 6Y, 27I, C(14-21)-C20L5A (peptide)
peptide: Y[Aib]EGTYTSDYSIYCDKQAA[Aib]CFVNWLIAGGPSSGAPPPS-NH2
modifications: linker 14-21 via C20L5A; not fully specified; reading uncertain
For B4, the “EC50 … GIPR (nM), 02/19” value (human GIP receptor [1]) was 0.5 nM, the “EC50 … 03/25” value (human GIP receptor [1]) was 0.58 nM and the “EC50 … GIPR (nM), 03/26” value (human GIP receptor [1]) was 0.6 nM. For the same binder, the “EC50 … GIPR (nM), average” value (human GIP receptor [1]) was 0.56 nM, the “EC50 … GLP1R (nM), 02/19” value (human GLP-1 receptor [2]) was 0.04 nM and the “EC50 … (nM), 3/25” value (human GLP-1 receptor [2]) was 0.07 nM. The “EC50 … GLP1R (nM), 03/26” value (human GLP-1 receptor [2]) was 0.07 nM and the “EC50 … GLP1R (nM), average” value (human GLP-1 receptor [2]) was 0.06 nM.

B5: ZA-42 - K5 (peptide)
peptide: H-Y[Aib]EGTFHSDYDIYKDKQAA[Nle]KFVAWLLAGGPSSGAPPPS-NH2
modifications: linker 14-21 via K5; not fully specified; reading uncertain
For B5, the “EC50 [nM]” value (human GIP receptor [3]) was 303 nM and the “EC50 [nM]” value (human GLP-1 receptor [4]) was ~13700 nM.

B6: 6Y, 8N, 27I, C(17-24)-C20L5A (peptide)
peptide: Y[Aib]EGTYTNDYSIYLDKCAA[Aib]EFVCWLIAGGPSSGAPPPS-NH2
modifications: linker 17-24 via C20L5A; not fully specified; reading uncertain
For B6, the “EC50 … GIPR (nM), 02/19” value (human GIP receptor [1]) was 2.48 nM, the “EC50 … GIPR (nM), 03/26” value (human GIP receptor [1]) was 3.29 nM and the “EC50 … GIPR (nM), average” value (human GIP receptor [1]) was 2.88 nM. The “EC50 … GLP1R (nM), 02/19” value (human GLP-1 receptor [2]) was 0.06 nM, the “EC50 … (nM), 3/25” value (human GLP-1 receptor [2]) was 0.11 nM and the “EC50 … GLP1R (nM), 03/26” value (human GLP-1 receptor [2]) was 0.07 nM. The “EC50 … GLP1R (nM), average” value (human GLP-1 receptor [2]) was 0.08 nM.

B7: mCLZ715 (peptide)
peptide: Y[Aib]EGTFTSDYSIYKDKQAA[Aib]KFVNWLLAGGPSSGAPPPS-NH2
modifications: bridge 14-21 via K5; reading uncertain
For B7, the “EC50 [nM]” value (human GIP receptor [3]) was 0.02 nM and the “EC50 [nM]” value (human GLP-1 receptor [4]) was 0.02 nM.

B8: mCMC759 (C(14-21)-L5A) (peptide)
peptide: Y[Aib]EGTFTSDYSIYCDKQAA[Aib]CFVNWLLAGGPSSGAPPPS-NH2
modifications: linker 14-21 via L5A; not fully specified; reading uncertain
In the case of B8, the “EC50 [nM]” value (human GIP receptor [7]) is reported as 0.03 nM and the “EC50 [nM]” value (human GIP receptor [5]) is reported as 0.03 nM.

B9: 19Q, 21A, 27I, 29Q, C(17-24) - C20L5A (peptide)
peptide: Y[Aib]EGTFTSDYSIYLDKCAQ[Aib]AFVCWLIAQGPSSGAPPPS-NH2
modifications: linker 17-24 via C20L5A; not fully specified; reading uncertain
For B9, the “EC50 [nM]” value (human GIP receptor [7]) was 0.02 nM.

B10: mCMV266 (27I, C(14-21)-C20L5A) (peptide)
peptide: Y[Aib]EGTFTSDYSIYCDKQAA[Aib]CFVNWLIAGGPSSGAPPPS-NH2
modifications: linker 14-21 via C20L5A; not fully specified; reading uncertain
With B10 the “EC50 … GIPR (nM), 02/19” value (human GIP receptor [1]) was 0.08 nM, the “EC50 … 03/25” value (human GIP receptor [1]) was 0.06 nM and the “EC50 … GIPR (nM), 03/26” value (human GIP receptor [1]) was 0.06 nM. For the same binder, the “EC50 … GIPR (nM), average” value (human GIP receptor [1]) was 0.07 nM, the “EC50 … GLP1R (nM), 02/19” value (human GLP-1 receptor [2]) was 0.03 nM and the “EC50 … (nM), 3/25” value (human GLP-1 receptor [2]) was 0.05 nM. For the same binder, the “EC50 … GLP1R (nM), 03/26” value (human GLP-1 receptor [2]) was 0.06 nM, the “EC50 … GLP1R (nM), average” value (human GLP-1 receptor [2]) was 0.05 nM and the “EC50 [nM]” value (human GIP receptor [5]) was 0.07 nM. The “EC50 [nM]” value (human GLP-1 receptor [6]) was 0.05 nM.

B11: ZA-42 - K4 (peptide)
peptide: H-Y[Aib]EGTFHSDYDIYKDKQAA[Nle]KFVAWLLAGGPSSGAPPPS-NH2
modifications: linker 14-21 via K4; not fully specified; reading uncertain
In the case of B11, the “EC50 [nM]” value (human GIP receptor [3]) is reported as 20.4 nM and the “EC50 [nM]” value (human GLP-1 receptor [4]) is reported as 18.8 nM.

B12: ZA-43 - K4 (peptide)
peptide: H-Y[Aib]EGTFT[dS]DY[dS]IYKDKQAA[Nle]KFVAWLLAGGPSSGAPPPS-NH2
modifications: linker 14-21 via K4; not fully specified; reading uncertain
For B12, the “EC50 [nM]” value (human GIP receptor [3]) was 11.3 nM and the “EC50 [nM]” value (human GLP-1 receptor [4]) was 1.32 nM.

B13: 7I, 10V, 27I, C(14-21) - L5A (peptide)
peptide: Y[Aib]EGTFISDVSIYCDKQAA[Aib]CFVNWLIAGGPSSGAPPPS-NH2
modifications: linker 14-21 via L5A; not fully specified; reading uncertain
B13 was tested, and the “EC50 [nM]” value (human GIP receptor [5]) was 12.6 nM and the “EC50 [nM]” value (human GLP-1 receptor [6]) was 83.9 nM.

B14: C(14-21)-C20L5A (peptide)
peptide: Y[Aib]EGTFTSDYSIYCDKQAA[Aib]CFVNWLLAGGPSSGAPPPS-NH2
modifications: linker 14-21 via C20L5A; reading uncertain
With B14 the “EC50 … GIPR (nM), 02/19” value (human GIP receptor [1]) was 0.07 nM, the “EC50 … 03/25” value (human GIP receptor [1]) was 0.04 nM and the “EC50 … GIPR (nM), 03/26” value (human GIP receptor [1]) was 0.04 nM. For the same binder, the “EC50 … GIPR (nM), average” value (human GIP receptor [1]) was 0.05 nM and the “EC50 [nM]” value (human GIP receptor [5]) was 0.05 nM.

B15: ZA-41 - K4 (peptide)
peptide: H-Y[Aib]EGTFHSDYDIYKDKQAA[Aib]KFVQWLLAGGPSSGAPPPS-NH2
modifications: bridge 14-21 via K4; reading uncertain
B15 was tested, and the “EC50 [nM]” value (human GIP receptor [3]) was 5.31 nM and the “EC50 [nM]” value (human GLP-1 receptor [4]) was 13.8 nM.

B16: 27I, C(14-21)-L5A (peptide)
peptide: Y[Aib]EGTFTSDYSIYCDKQAA[Aib]CFVNWLIAGGPSSGAPPPS-NH2
modifications: linker 14-21 via L5A; not fully specified; reading uncertain
In the case of B16, the “EC50 [nM]” value (human GIP receptor [5]) is reported as 0.03 nM and the “EC50 [nM]” value (human GLP-1 receptor [6]) is reported as 0.04 nM.

B17: ZA-43 - K5 (peptide)
peptide: H-Y[Aib]EGTFT[dS]DY[dS]IYKDKQAA[Nle]KFVAWLLAGGPSSGAPPPS-NH2
modifications: linker 14-21 via K5; not fully specified; reading uncertain
In the case of B17, the “EC50 [nM]” value (human GIP receptor [3]) is reported as 15.7 nM and the “EC50 [nM]” value (human GLP-1 receptor [4]) is reported as 3.74 nM.
